Reference: patent publication US20220242957A1 (MARENGO THERAPEUTICS, published 2022)
Positions count from the first letter of the chain named. Names and notes keep the numbering of the source.

B1: BIM0548 (antibody, human IgG1, lambda)
heavy: EVQLVESGGGLVQPGGSLRLSCAASGFTFSNDEMNWIRQAPGKGLEWVSYISSRSSTIYYADAVKGRFTISRDNARNSLYLQMNSLRAEDTAVYYCARSVDGDGSFDYWGQGTLVTVSSASTKGPSVFPLAPSSKSTSGGTAALGCLVKDYFPEPVTVSWNSGALTSGVHTFPAVLQSSGLYSLSSVVTVPSSSLGTQTYICNVNHKPSNTKVDKRVEPKSCDKTHTCPPCPAPELLGGPSVFLFPPKPKDTLMISRTPEVTCVVVDVSHEDPEVKFNWYVDGVEVHNAKTKPREEQYNSTYRVVSVLTVLHQDWLNGKEYKCKVSNKALPAPIEKTISKAKGQPREPQVCTLPPSREEMTKNQVSLSCAVKGFYPSDIAVEWESNGQPENNYKTTPPVLDSDGSFFLVSKLTVDKSRWQQGNVFSCSVMHEALHNHYTQKSLSLSPGK
light: QLVLTQPPSVSGAPGQRVTISCTGSSSNIGAGYDVHWYQQLPGTAPKLLIYGNSNRPSGVPDRFSGSKSGTSASLAITGLQAEDEADYYCQSYDSSLSEEVFGGGTKLTVLGQPKANPTVTLFPPSSEELQANKATLVCLISDFYPGAVTVAWKADGSPVKAGVETTKPSKQSNNKYAASSYLSLTPEQWKSHRSYSCQVTHEGSTVEKTVAPTECS
chain: not shown
B2: BIM0554 (antibody, human IgG1, lambda)
heavy: not shown
light: SLVLTQPPSVSVAPGKTARITCGGNNIGSKSVHWYQQKPGQAPVLVVYDDSDRPSGIPERFSGSNSGNTATLTISRVEAGDEADYYCQVWDSSSDHVVFGGGTQLTVLGQPKANPTVTLFPPSSEELQANKATLVCLISDFYPGAVTVAWKADGSPVKAGVETTKPSKQSNNKYAASSYLSLTPEQWKSHRSYSCQVTHEGSTVEKTVAPTECS
chain: not shown
B3: BIM0552 (antibody, human IgG1, lambda)
heavy: B1 heavy with S99G, G104F
light: B1 light
chain: not shown
notes: Heavy chain entry ends in X = K or absent; also called multispecific molecule 80; aCSF1R BI117 half-arm antibody
B4: BIM0542 (antibody, human IgG1, lambda)
heavy: B1 heavy with R54G, S99G, G104F
light: B1 light
chain: not shown
notes: Heavy chain entry ends in X = K or absent; also called multispecific molecule 70; aCSF1R BI117 C5-R2A half-arm antibody
B5: BIM0546 (antibody, human IgG1, lambda)
heavy: B1 heavy with S99G, G104F, Y108V
light: B1 light
chain: not shown
notes: Half-arm (monovalent) anti-human CSF1R antibody, three chains as BIM0542; Heavy chain entry ends in X = K or absent; also called multispecific molecule 74; aCSF1R BI117 G1-R2B half-arm antibody
B6: BIM0544 (antibody, human IgG1, lambda)
heavy: B1 heavy with S99N, V100S, G102E
light: B1 light
chain: not shown
notes: Half-arm (monovalent) anti-human CSF1R antibody, three chains as BIM0542; Heavy chain entry ends in X = K or absent; also called multispecific molecule 72; aCSF1R BI117 D1-R2A half-arm antibody
B7: BIM0567 (antibody, human IgG1, lambda)
heavy: B1 heavy with S99G, D101E, G102S, G104F
light: B1 light
chain: not shown
notes: Half-arm (monovalent) anti-human CSF1R antibody, three chains as BIM0542; Heavy chain entry ends in X = K or absent; also called multispecific molecule 86; aCSF1R BI117 D11-R3B half-arm antibody
B8: BIM0566 (antibody, human IgG1, lambda)
heavy: B1 heavy with V100G, D101R, G102L
light: B1 light
chain: not shown
notes: Half-arm (monovalent) anti-human CSF1R antibody, three chains as BIM0542; Heavy chain entry ends in X = K or absent; also called multispecific molecule 85; aCSF1R BI117 C6-R3B half-arm antibody
B9: BIM0545 (antibody, human IgG1, lambda)
heavy: B1 heavy with S52T, R54K, A63S, S99G, G104F
light: B1 light
chain: not shown
notes: Half-arm (monovalent) anti-human CSF1R antibody, three chains as BIM0542; Heavy chain entry ends in X = K or absent; also called multispecific molecule 73; aCSF1R BI117 E2-R2B half-arm antibody
B10: BIM0543 (antibody, human IgG1, lambda)
heavy: B1 heavy with Y50F, S53G, R54G, S99G, G104F
light: B1 light
chain: not shown
notes: Half-arm (monovalent) anti-human CSF1R antibody, three chains as BIM0542; Heavy chain entry ends in X = K or absent; also called multispecific molecule 71; aCSF1R BI117 C9-R2A half-arm antibody
B11: BIM0553 (antibody, human IgG1, lambda)
heavy: B1 heavy with S99G, G104F, Y108F
light: B1 light
chain: not shown
notes: Half-arm (monovalent) anti-human CSF1R antibody, three chains as BIM0542; Heavy chain entry ends in X = K or absent; also called multispecific molecule 81; aCSF1R BI117 C5-R3B half-arm antibody
B12: BIM0547 (antibody, human IgG1, lambda)
heavy: B1 heavy with S52T, R54K, S99G, G104F
light: B1 light
chain: not shown
notes: Half-arm (monovalent) anti-human CSF1R antibody, three chains as BIM0542; Heavy chain entry ends in X = K or absent; also called multispecific molecule 75; aCSF1R BI117 G12-R2B half-arm antibody
B13: BIM0551 (antibody, human IgG1, lambda)
heavy: B1 heavy with S99N, V100S, G102S, Y108I
light: B1 light
chain: not shown
notes: Half-arm (monovalent) anti-human CSF1R antibody, three chains as BIM0542; Heavy chain entry ends in X = K or absent; also called multispecific molecule 79; aCSF1R BI117 B2-R3B half-arm antibody
B14: BIM0549 (antibody, human IgG1, lambda)
heavy: B1 heavy with V100S, D103S, G104T
light: B1 light
chain: not shown
notes: Half-arm (monovalent) anti-human CSF1R antibody, three chains as BIM0542; Heavy chain entry ends in X = K or absent; also called multispecific molecule 77; aCSF1R BI117 A6-R3B half-arm antibody
B15: BIM0550 (antibody, human IgG1, lambda)
heavy: B1 heavy with R54S, K65T, S99G, G104F
light: B1 light
chain: not shown
notes: Half-arm (monovalent) anti-human CSF1R antibody, three chains as BIM0542; Heavy chain entry ends in X = K or absent; also called multispecific molecule 78; aCSF1R BI117 A11-R3B half-arm antibody
B16: BIM0555 (antibody, human IgG1, lambda)
heavy: not shown
light: B2 light
chain: not shown
notes: Half-arm (monovalent) anti-human CSF1R antibody, three chains as BIM0542; Heavy chain entry ends in X = K or absent; also called multispecific molecule 83; aCSF1R BI123 B6-R3B half-arm antibody
B17: BIM0556 (antibody, human IgG1, lambda)
heavy: not shown
light: B2 light
chain: not shown
notes: Half-arm (monovalent) anti-human CSF1R antibody, three chains as BIM0542; Heavy chain entry ends in X = K or absent; also called multispecific molecule 84; aCSF1R BI123 C1-R3B half-arm antibody

Target: T1, human CSF1R (human, UniProt P07333 20-972)
Experiment: cell-based or functional assay

T1 sequence (P07333 20-972): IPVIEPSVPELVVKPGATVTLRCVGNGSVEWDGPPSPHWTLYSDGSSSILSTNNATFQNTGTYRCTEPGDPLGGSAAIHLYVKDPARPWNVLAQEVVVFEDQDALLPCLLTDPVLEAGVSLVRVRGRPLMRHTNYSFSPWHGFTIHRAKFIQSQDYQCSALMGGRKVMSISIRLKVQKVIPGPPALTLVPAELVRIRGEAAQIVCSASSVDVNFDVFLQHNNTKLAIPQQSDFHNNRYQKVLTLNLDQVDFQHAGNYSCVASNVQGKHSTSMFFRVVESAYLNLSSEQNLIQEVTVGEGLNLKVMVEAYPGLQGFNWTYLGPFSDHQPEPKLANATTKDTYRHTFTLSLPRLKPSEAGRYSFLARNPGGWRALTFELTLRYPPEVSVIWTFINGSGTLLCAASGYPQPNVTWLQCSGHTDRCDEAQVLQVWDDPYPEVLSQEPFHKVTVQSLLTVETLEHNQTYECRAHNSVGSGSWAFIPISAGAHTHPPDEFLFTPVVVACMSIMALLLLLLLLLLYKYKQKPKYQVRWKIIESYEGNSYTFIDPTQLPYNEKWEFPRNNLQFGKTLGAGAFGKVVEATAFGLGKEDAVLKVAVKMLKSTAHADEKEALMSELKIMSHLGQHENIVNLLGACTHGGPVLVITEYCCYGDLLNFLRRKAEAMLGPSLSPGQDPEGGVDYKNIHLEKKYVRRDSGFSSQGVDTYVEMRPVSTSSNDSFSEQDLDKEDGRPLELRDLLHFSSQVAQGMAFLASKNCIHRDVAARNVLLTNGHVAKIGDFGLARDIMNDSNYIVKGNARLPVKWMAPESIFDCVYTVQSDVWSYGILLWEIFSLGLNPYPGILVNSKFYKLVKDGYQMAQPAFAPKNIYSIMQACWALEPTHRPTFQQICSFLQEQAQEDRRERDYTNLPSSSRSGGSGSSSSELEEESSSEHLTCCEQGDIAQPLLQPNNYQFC

Binder | IC50 of reduction of MCP-1 (CCL2) secretion by human monocytes cultured with hCSF-1 (electrochemiluminescence) [nM]
B1 | ≤ 30
B2 | ≤ 30

Target: T2, human CSF1R-Fc ECD (human, UniProt P07333 20-517)
T2 construct: extracellular domain; not shown: Fc part of the coated reagent, not described
Experiment: ELISA, plate coated with 2 µg/mL human CSF1R, monovalent antibody titrated, anti-human Fc HRP
Protocol: Microplates were separately coated with 2 μg/mL of human or cyno CSF1R in 100 μL and blocked with 2% BSA. Serial dilutions of unlabeled monovalent human antibodies (11 points, 3-fold dilutions, 400 nM to […]) were transferred to the coated and blocked plates at 75 μL/well and incubated for 1 hr at room temperature. Plates were washed three times and incubated for 30 mins with anti-human Fc horseradish peroxidase conjugate followed by addition of TMB, a substrate of HRP. The plates were developed for 5 mins, stopped with 1M HCL and read at a wavelength of 450 nm.

T2 sequence (P07333 20-517): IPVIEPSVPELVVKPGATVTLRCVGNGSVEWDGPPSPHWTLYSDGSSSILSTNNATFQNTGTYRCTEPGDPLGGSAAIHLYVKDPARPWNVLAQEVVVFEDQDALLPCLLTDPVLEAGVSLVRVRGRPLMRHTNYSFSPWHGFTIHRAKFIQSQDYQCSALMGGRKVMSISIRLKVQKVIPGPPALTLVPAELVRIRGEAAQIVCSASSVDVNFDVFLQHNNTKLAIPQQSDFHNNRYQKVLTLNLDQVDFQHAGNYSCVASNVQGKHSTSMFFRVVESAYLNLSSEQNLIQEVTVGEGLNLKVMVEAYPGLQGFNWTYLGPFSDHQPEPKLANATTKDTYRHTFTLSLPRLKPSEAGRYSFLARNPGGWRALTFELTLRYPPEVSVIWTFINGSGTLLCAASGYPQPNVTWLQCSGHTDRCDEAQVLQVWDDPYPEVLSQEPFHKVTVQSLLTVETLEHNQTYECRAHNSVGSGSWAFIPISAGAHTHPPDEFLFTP

Binder | binding result
B3 | binds
B4 | binds
B5 | binds
B6 | binds
B7 | binds
B8 | binds
B9 | binds
B10 | binds
B11 | binds
B12 | binds
B13 | binds
B14 | binds
B15 | binds
B16 | binds
B17 | binds

Target: T1, human CSF1R
Experiment: flow cytometry on HEK-293T cells stably transduced with human CSF1R; anti-human Fc APC; percent APC positive
Protocol: HEK-293T cells were lentivirally transduced with human CSF1R and stable cell lines were generated. Nearly all transduced cells expressed high levels of CSF1R. Cells were washed with PBS containing 0.5% BSA and 0.1% sodium azide (staining buffer) and added to 96-well V-bottom plates with 100,000 cells/well. Human anti-CSF1R monovalent antibodies were added to the cells in 2.5 fold serial dilutions and incubated for 2 hour at room temperature. The plates were washed twice with staining buffer. The secondary antibody against human Fc conjugated to APC was added at 1:200 dilution (1.5 mg/ml stock) and incubated with the cells for 1 hour at 4° C. followed by washing with staining buffer. Cells were subsequently stained with a live/dead dye to exclude any dying cells and were fixed for 10 minutes with 4% paraformaldehyde at room temperature. The plates were read on CytoFLEX LS (Beckman Coulter). Data was calculated as the percent-APC positive population.

Binder | binding result
B3 | binds
B4 | binds
B5 | binds
B6 | binds
B7 | binds
B8 | binds
B9 | binds
B10 | binds
B11 | binds
B12 | binds
B13 | binds
B14 | binds
B15 | binds
B16 | binds
B17 | binds
